The data set in a line: soluble on expression in E. coli; label from the status in PepcDB or PDB records.
Take “MSLGRAGRGIDSAVGILLCGSEDRAIHKFFRESAFPAEAQIHEILNVLSVNDGLTLRGIEQRTNLRYGQIEKALKLLVAENPSPVVYTEKLWRRTIVSFSPDHERINHLMNQRKSELADVESYITTKECKMQFLRRALDEPGAEHCGKCSSCLQHPLLSPDIDSGLLHAANLFIKHADLSLNLNKQVAAGAFTQYGFKGNLPASLQGSTGRILSRWGYSGWGKQVAQEKKTGRFSDELVEACAEMVRQRWNPHPEPTWVCCVPSLKHLDLVPDFESTSTWFLILPGDWRRNLAYLLLMPLKKSWTIHRRKCSKTVSTSVKISTGREGHHHHHH”: the “soluble on expression in E. coli” value is recorded as “not soluble”.
Next, “MSLGRDKDLNILCWEGYNSAQVLDPFRKLTGATVKAESSTNDPTMINRLRAGETNVWDLINVNNPWARKILWPQNLIKPLDRAEFEPFFDKMLPEFKAPYRWAMSDDGKDLLGMAQRFGPFCFVVDTDKISRQTAEDQGWDLWNDKALAGRYGIQESDDWNVFGLFLIAGINPFKTHTEAELAKFEETAKAVFKGAKVVGDMASMNQALVSGEIDLYLSGGTYTVSPARAEGLGNLRGITPLRGPIDGKGGVMWVEITSQVNNPQLSPLAGQFLKHVQTPQVAHTVAFAEGTFNPIAQMGNPDCFKLFSKAELDAIQWDSLAEEMARSVAYDIVPDYDKALDLMTAAKRVRGEGHHHHHH”: “soluble”; “MSLGSGHAGKARSAVTTTDADWKPVADALGRSGKLGDNNTAYRINLPRNDLHITSYGVDIKPGLSLGGYAAFARYDNNETLLMGDLVITEEELPKVTDALQAHGIAQTALHKHLLQQDPPVWWTHIHGMGDAARLAQGLKAALDATTIGPPTPPPARQPPVDIDVAGVDQALGRKGTQDGGLMKYSIPRKDTIIEDGHVLPAVSLNLTTVINFQPVGRGRAAINGDFILIAPEVQEVIRAMRAGNITIVELHNHGLTEEPRLFYMHYWAVDDAVTLARALRPAMDATNLQSEGHHHHHH”: “soluble”; “MSLGYDHPEILLNFKKDADIWDMMLNTNYMKTCREVVFEYLGVKNGDTVLEVGCGSRSPVYFASKVAPNGAYTGVDISKKLIRVAEGRLKRSGVECVNLKSMDFSETITKYKHDYVLCIHTLSYAHSMKLFLKKMMESLRKGGKLLIMEEFFTENINTNAELFEFYNHLNKYFKNYVSRTEILKEIEMLGYDFKYELLGNNCIVVERIEGHHHHHH”: “not soluble”.
Next, “MSLGYGIRLLVWGEFACFTRPEMKVERVSYDVMTPSAARGILESIHWKPSIVWKIDKIHVLNEIRFDNVRRNEVGSKIPTGNVRKAMKGEPTLLCQYASEDRQQRATLLLRNVAYVIVAHFEMTSKAGPQDSPEKHYAIFSRRARQGQCFQQPYFGCREFPAKFRLIEEDEPTPHSLHKGDKDLGWMLLDIDHEDGMNPRFFRATMKDGLIEVPPMERGLTVLEGHHHHHH”: “soluble”; “MSLHEFQTDSKNKHKVDVHIGIYAPFSSHSAFIGRNILAAMEMGSERLQSSDIHYSFYTLDQLPKNKNAGLVLQKFIDTHHINVLVTGGKETGLIAAPIAKKNNLIHFSLTNNTEVADGRNNFIVWSPAYDQAKVLVNELKRQQVHHLGIITANQPSSTALTHSVIKQLQSDSHIDVAASEYFEPGNKDFSRLTNRIKRKNADMYLVMASPEDIKLIQEQMEADKQHVPITSIVERATPEVVKVFEGQWYVDSHEMQPDFINEFKQNYLNYPVTEAGYAFDLFQLLNKSIVMAIRTQGSPTTSQEVVHQLHDIANGTGVMGTMVLDSKGSLFTKSEVKTVKNGEIHTVEGHHHHHH”: “soluble”.
As for “MSLHGVPFGTVPPMGTIGLIAAMPDEIRPFLRLASPAARLHGGRFPIWRLRVGNDDIVLVESGMGIDRATAATDALVAAASPVAILSFGFGGAALPGLKVGDLAVGMTSWFAGTEGIVLRRGIDRNLAEKLAEELNRICNGVTRGEIITSARILKKGDLAHSLPNGISSPILDMETAAVAEAAHRRGIPIVALRAISDDAEEELSFSLDEFTDDDMAIRPRKVLATIARKEGHHHHHH”, the “soluble on expression in E. coli” value is “soluble”.
For the sequence “MSLHITTKRLLIREFEFKDWQAVYEYTSDSNVMKYIPEGVFTEEDAKAFVNKNKGDNAEKFPVILRDEDCLIGHIVFYKYFGEHTYEIGWVFNPNYQNKGYASEAAQAILEYGFKEMNLHRIIATCQPENIPSYRVMKKIGMRREGFFKKCIPKGNEWWDEYYYAILEEEWNEGHHHHHH”, the “soluble on expression in E. coli” value is on record as “soluble”.
Next, “MSLHPHLNANLEGGVLTLAINRPEAKNALYGELYLWIAKALDEADQNKDVRVVVLRGAEHDFTAGNDMKDFMGFVQNPNAGPAGQVPPFVLLKSAARLSKPLIIAVKGVAIGIGVTILLQADLVFADNTALFQIPFVSLGLSPEGGASQLLVKQAGYHKAAELLFTAKKFNAETALQAGLVNEIVEDAYATAQATAQHLTALPLASLKQTKALMKHDLDQIIECIDHEAEIFMQRVQSPEMLEAVQAFMQKRQPDFSQEGHHHHHH”: “soluble”; “MSLIDLKQYEFWFLVGSQYLYGLETLKKVEQQASKIVDSLNDDPIFPSKIVLKPVLKSSSEITEIFEKANADPKCAGVIVWMHTFSPSKMWIRGLSINKKPLLHLHTQYNREIPWDTIDMDYMNLNQSAHGDREHGFIHARMRLPRKVVVGHWEEKEVREKIAKWMRVACAIQDGRMGQIVRFGDNMREVASTEGDKVEAQIKLGWSINTWGVGELAERVKAVPEREVEELLKEYREKYIMPEDEYSLKAIREQAKIEIALREFLKEKNAVGFTTTFEDLHDLPQLPGLAVQRLMEEGYGFGAEGDWKAAGLVRAIKVMGTSLPGGTSFMEDYTYHLTPGNELVLGAHMLEVCPTIAKEKPRIEVHPLSIGGKADPARLVFDGQEGPAVNASIVDMGNRFRLVVNKVLSVPIERKMPKLPTARVLWKPLPDFKRATTAWILAGGSHHTAFSTAIDVEYLIDWAEALEIEYVVIDENLDLEDFKKELRWNELYWGLLKREGHHHHHH”: “soluble”.
Consider “MSLIDRYILAIESSCDETSVAILKNEDQLLSNIIASQVESHKRFGGVVPEVASRHHVEVITLCIQDALQEAGITAGDLSAVAVTYGPGLVGALLVGMAAAKAFAWANHLPLIPVNHMAGHLMAAQSIADLQYPLLALLVSGGHTELVYVAAPGDYRIVGETRDDAVGEAYDKVGRVMGLTYPAGKEIDQLAHQGQDIYDFPRAMIKEDNLEFSFSGLKSAFINLHHNARQKGEQLRLEDLCASFQAAVLDILMVKTKKALAAYPVKTLVIAGGVAANQGLRERLKEDIKDINVVIPPLRLCGDNAGMIAYAAAVEYEKGHFAELDLNAKPSLAFEGLEEGHHHHHH”, for which the “soluble on expression in E. coli” value was “soluble”.
Next, “MSLIIRKLFEFENAHIVRFCSSKRCKSSIHGHSYKVEVLLESKYLDNAGMVYDFGLLKTYIRQIIDSFDHAITLFKYDDAKYLEEMKKYSSRWICLPVNVSAENFCRVFFILIDALLKQTKMVNGEQGVTLQSIIVHETRTGYAQGFREDAYSELMPKISLQDIEFSNGIKAEWNDIDFYNKLKNEEIFINPKEEGHHHHHH”: “soluble”; “MSLIKVLIVDDHALVRMGIRRLLEDMSDVDVVADAESGEQALAYVKTHSPDVVLLDMKMPGIDGWEVTRRLKKTNPNIKVIAVTAICSDPLPTRVLQLGAMGYLTKESGAEEMAAAIRKVAKGEKYLSAEIAQKMAINSLQESQDSPFDLLSEREMQVMLMITSGMNVQDIADRLFLSSKTINGYRYRMFEKLGIKNDVELTYLAMKHRIIEHPNDLSQDDEGHHHHHH”: “soluble”; “MSLILCIDVGNSHIYGGVFDGDEIKLRFRHTSKVSTSDELGIFLKSVLRENNCSPETIRKIAICSVVPQVDYSLRSACVKYFSIDPFLLQAGVKTGLNIKYRNPVEVGADRIANAIAATHSFPNQNIIVIDFGTATTFCAISHKKAYLGGAILPGLRLSADALSKNTAKLPSVEIIKTESVVGRSTIESIQSGVYYGVLGACKELIQRIHHEAFNGDQILILATGGFASLFDKQGLYDHLVPDLVLQGIRLAAMMNTAEGHHHHHH”: “soluble”.
Take “MSLINKHVISEKIKKAIVEANIKINPEVEEIIERYEGPFSDIIKENYRVSKEEKLPLCQDTGIVEFFVFIGHEVKLEEPIEETLNRAVGEVYSEYPFRYSVVSDPLFERINTGTNTPAIVHIFQVKGKSLEIRFLVRGGGSENLTVLRMMTPTSDVEKVKEFVIEHIKEHGAKACPPLHVGIGIGGTADKALLLSKLALTKSFKERNKDPKYAGLEKELEKELNFLGIGFQGLGKGITVYSVHIEHFPTHIATLPVAVSVDCYLCRRGKVTFEDEGGSHHHHHH”: the “soluble on expression in E. coli” value was “soluble”.
For the sequence “MSLIPKFREFDRERHRTDYQKGMSYAEQQDFDMGFTIWFDHIEDLDLIEKDGTINRIVMMSTGLKDKNVKEIYESDIVRNLYGELYVVEWLDGSFVLTEFYNGGYDHYIIDSSTEYEVLGNIYENPELLEDDNHASNEGHHHHHH”, the “soluble on expression in E. coli” value is given as “soluble”.
For “MSLIRANAGDWKKYTFELTPDKTDENARLAIYLEEKGRIQVDMVTLMNGADRQFCGLPLRNDIGQAMVDQGLRFLRYGGTMVNAPEYRFKKMIGDRAERPPYKGHWYTYSTNGFGIEDFLHFCEKAGFMPAYAVNVEESAQDMADMIEYLNGSVDTKWGKKRAENGHPEPYGLKYLEIGNEEVIWGDIEADYQHYIDRFNDIYEAVHAKDPEVQFIHSAWWRPESPNMEKVFKALDGKAAYWDYHPWTDDLGSHVNIDRELTDMKAKFLKWNPKTSMRCAIFEENGNLHNVQRAIVHATVQNVVRRHGDFILTTCAANALQPYLQNDNGWDQGQIFFTSGQVWGMPTFYAQQMSSAHHHPLRLWSETVGELDMTATTNEARDEVILHVVNTSSEVRETQVSLSGFIPKGNMEIYTLSGELNDENLPDTPTWILPKATWKQAPGSDFTYSFPGYSYTIVVLKEGHHHHHH”, the “soluble on expression in E. coli” value was “not soluble”.
Next, “MSLIRIGHGFDVHAFGEDRPLIIGGVEVPYHTGFIAHSDGDVALHALTDAILGAAALGDIGKLFPDTDMQYKNADSRGLLREAFRQVQEKGYKIGNVDITIIAQAPKMRPHIDAMRAKIAEDLQCDIEQVNVKATTTEKLGFTGRQEGIACEAVALLIRQEGGSHHHHHH”: “soluble”; “MSLISEVVVTTRKNNRDNKAPIGVYFKDKKVIMHLFSGSHTYENLLTEDYFSVNVVPPIEIAKAVLDDEDDYLYYNDIPYLKSSYYAIFYKVIERKFVDREDKFGKNRLMILEGEEIKRIYLNNIPKPYNRADGLLVEIAVIYSRLANKNIKINEDDKKEMINDIRKYFSIIKKVGGREHKQLAEIMLRNLNLLEGHHHHHH”: “soluble”; “MSLITLTTDFGLKGPYVGEMKVAMLRINPNAKIVDVTHSVTRHSILEGSFVMEQVVKYSPKGTVHVGVIDPGVGTERRAIVIEGDQYLVVPDNGLATLPLKHIKVKSVYEIIPDKIRKFTGWEISSTFHGRDIFGPAGALIEKGIHPEEFGREIPVDSIVKLNVEPRKEGDVWILKVIYIDDFGNVILNLENYEKPRTVELLDFNLRLPYLETYGLVEKGEMLALPGSHDYLEIAVNMGSAAERLNVKVGDELRVRLLEGGSHHHHHH”: “soluble”.
Regarding “MSLITTRTARQCGQADYGWLQARYTFSFGHYFDPKLLGYASLRVLNQEVLAPGAAFQPRTYPKVDILNVILDGEAEYRDSEGNHVQASAGEALLLSTQPGVSYSEHNLSKDKPLTRMQLWLDACPQRENPLIQKLALNMGKQQLIASPEGAMGSLQLRQQVWLHHIVLDKGESANFQLHGPRAYLQSIHGKFHALTHHEEKEGHHHHHH”, the “soluble on expression in E. coli” value is recorded as “not soluble”.
